Experiment [1] concerns the target T1, Recombinant human/cynomolgus/rhesus macaque CD28 mouse IgG2a Fc fusion protein (Acro Biosystems) (human/cynomolgus/rhesus macaque, UniProt P10747 19-152).
T1 construct: bought; also called huCD28
Put plainly: SPR Biacore T200, CD28-mIgG2a Fc on CM5. A general note: In SPR one partner is held on a chip, and binding of the other changes the refractive index at the surface.

For experiment [2], the target named is T2, CD28 on primary human T cells (human, UniProt P10747 19-220). The experiment can be described thus: cell-based or functional assay.
For experiment [3], the target named is T2, CD28 on primary human T cells. Put plainly: cell-based or functional assay. This is another data set of the same source.

Changes are numbered by the printed parent chain. Names and notes keep the numbering of the source.

B1: v37690 (trispecific antibody, human IgG1, kappa, L234A L235A)
heavy 1: not shown
heavy 2: QVQLVESGGGLVQPGGSLRLSCSVSGIDLSSNPMIWVRQAPGKGLQYIGIIDTDGSTYYADWAKGRFTISKDSTTVYLQINSPRAEDTAVYYCARRLHGSSNGYYDDLWGQGTLVTVSSGGGGSGGGGSGGGGSGGGGSDGQMTQSPSSVSASVGDRVTITCQASQSIYSYLSWYQQKPGQRPKLLIYKASTLASGVPSRFSGSGSGTDFTLTISSVQPEDFATYYCQQGYTVTNVDKNTFGGGTKVEIKAAEPKSSDKTHTCPPCPAPEAAGGPSVFLFPPKPKDTLMISRTPEVTCVVVSVSHEDPEVKFNWYVDGVEVHNAKTKPREEQYNSTYRVVSVLTVLHQDWLNGKEYKCKVSNKALPAPIEKTISKAKGQPREPQVYVLPPSRDELTKNQVSLLCLVKGFYPSDIAVEWESNGQPENNYLTWPPVLDSDGSFFLYSKLTVDKSRWQQGNVFSCSVMHEALHNHYTQKSLSLSPG
light: DIQMTQSPSSLSASVGDRVTITCRASESVEYYVTSLMQWYQQKPGKAPKLLIYAASNVDSGVPSRFSGSGSGTDFTLTISSLQPEDIATYYCQQSRKVPFTFGGGTKVEIKRTVAAPSVFIFPPSDEQLKSGTASVVCLLNNFYPREAKVQWKVDNALQSGNSQESVTEQDSKDSTYSLSSTLTLSKADYEKHKVYACEVTHQGLSSPVTKSFNRGEC
notes: also called v37638 format, CD28 VH Y1112S
For B1, the binding result in experiment [1] was “no binding”. In experiment [2], the “IL-2 maximum cytokine, T cells alone” value was 243 pg/mL; the “IL-2 maximum cytokine, T cells with SNU 601 cells” value worked out at 2700 pg/mL; the “TNFa maximum cytokine, T cells alone” value is 23 pg/mL; the “TNFa maximum cytokine, T cells with SNU 601 cells” value was 518 pg/mL. In experiment [3], the “IC50, T cell-dependent cytotoxicity on SNU 601” value worked out at 1.21 pM and the “Maximum Killing (%), SNU 601” value came out at 92.3%.

B2: v37694 (trispecific antibody, human IgG1, kappa, L234A L235A)
heavy 1: not shown
heavy 2: B1 heavy 2
light: B1 light with Y31A
notes: also called v37638 format, CD28 VL Y1031A
Regarding B2, the binding result in experiment [1] is listed as “no binding”. Besides, in experiment [2], the “IL-2 maximum cytokine, T cells alone” value was determined as 29.9 pg/mL; the “IL-2 maximum cytokine, T cells with SNU 601 cells” value was determined as 226 pg/mL; the “TNFa maximum cytokine, T cells alone” value worked out at 12.9 pg/mL; the “TNFa maximum cytokine, T cells with SNU 601 cells” value is 166 pg/mL. Further, in experiment [3], the “IC50, T cell-dependent cytotoxicity on SNU 601” value came out at 1.44 pM and the “Maximum Killing (%), SNU 601” value is 93.1%.
